Ends that are not written are not given here. * marks the point of attachment. Myristoyl = CCCCCCCCCCCCCC(=O)*
Assays:
Experiment in all cases: SPR
[1] = target: myrUSH3 D10R
[2] = target: myrUSH3 K5A
[3] = target: myrUSH3 K7A
[4] = target: myristoylated Src N-terminal Regulatory Element (SNRE) of c-Src, wild type
[5] = target: the molecule itself

myrUSH3 D10R (domain or fragment)
fold increase of dimerization relative to WT [1]: 6 fold

myrUSH3 K5A (domain or fragment)
reduction of dimer formation relative to WT [2]: 50% | reduction of the dimer population relative to WT at the same protein density [2]: 50%

myrUSH3 K7A (domain or fragment)
reduction of dimer formation relative to WT [3]: 50% | reduction of the dimer population relative to WT at the same protein density [3]: 40%

myristoylated Src N-terminal Regulatory Element (SNRE) of c-Src, wild type (domain or fragment)
stoichiometry N [4]: 2

Myristoyl-GSNRSRPRDASQRRR (peptide, UniProt P12931 2-16, looked up) [myrSH4 R5R7R9 (triple arginine)]
binding result [5]: binds

Myristoyl-GSNKSKPKDASQRRR (peptide, UniProt P12931-1 2-16, looked up) [myristoylated synthetic peptide with residues 2-16 of c-Src (entire SH4 domain), wild type]
binding result [5]: binds
